Assay results: patent publication EP4748860A1 (Kanglitai Biomedical (Qingdao) Co., Ltd., dated 2026)

B1: HER2-11-hFc (Fc fusion)
chain: QVQLQESGGGLVQAGGSLRLSCAASGHTVSRNMMGWFRQAPGKEREFVSAIAWNGEDTYYAESVEGRFTISKDNVKNTIYLQMNSLKPEDTAVYYCAASLFRLWNSATAGNNRVYHYWGQGTQVTVSS
notes: VHH gene cloned into pABG1-Fc (human Fc fragment), expressed in FreeStyle 293-F cells, Protein A purified; also called HER2-11-Fc; not shown: human Fc fragment of vector pABG1-Fc
B2: HER2-10-hFc (Fc fusion)
chain: QVQLQESGGGLVQPGGSLRLSCTAARNIFGRNVMGWFRQAPGKQREFVAHITGGSAVIYATSVKGRFTISRDNAKNTVYLQMNNLTLDDTAVYFCRAVNDDLWGQGTQVTVSS
notes: VHH gene cloned into pABG1-Fc (human Fc fragment), expressed in FreeStyle 293-F cells, Protein A purified; also called HER2-10-Fc; not shown: human Fc fragment of vector pABG1-Fc
B3: HER2-3-hFc (Fc fusion)
chain: QVQLQESGGGLVQAGDSLRLSCAASGLTFSTVGMGWFRQVLGMEREPVAGISWTGNVIGYAESVTGRFTISRDSAKNTVYLQMNSLKPEDTAVYYCAARRRGMSSYDYWGQGTQVTVSS
notes: VHH gene cloned into pABG1-Fc (human Fc fragment), expressed in FreeStyle 293-F cells, Protein A purified; also called HER2-3-Fc; not shown: human Fc fragment of vector pABG1-Fc
B4: HER2-8-hFc (Fc fusion)
chain: QVQLQESGGGLVQAGGSLRLSCAASGRTFSGAGVGWFRQDPEKEREFVAAIAWSGGSTRYADSVKGRFTISRDNTENTVFLQMNNLRPEDTAVYYCAATRRFYSGLTYTQRDVYDNWGQGTQVTVSS
notes: VHH gene cloned into pABG1-Fc (human Fc fragment), expressed in FreeStyle 293-F cells, Protein A purified; also called HER2-8-Fc; not shown: human Fc fragment of vector pABG1-Fc

What follows are binders tested against BSA (UniProt P02769 25-607) (assay: ELISA, antigen coated at 200 ng per well).
Sequence of BSA (P02769 25-607 limits assumed): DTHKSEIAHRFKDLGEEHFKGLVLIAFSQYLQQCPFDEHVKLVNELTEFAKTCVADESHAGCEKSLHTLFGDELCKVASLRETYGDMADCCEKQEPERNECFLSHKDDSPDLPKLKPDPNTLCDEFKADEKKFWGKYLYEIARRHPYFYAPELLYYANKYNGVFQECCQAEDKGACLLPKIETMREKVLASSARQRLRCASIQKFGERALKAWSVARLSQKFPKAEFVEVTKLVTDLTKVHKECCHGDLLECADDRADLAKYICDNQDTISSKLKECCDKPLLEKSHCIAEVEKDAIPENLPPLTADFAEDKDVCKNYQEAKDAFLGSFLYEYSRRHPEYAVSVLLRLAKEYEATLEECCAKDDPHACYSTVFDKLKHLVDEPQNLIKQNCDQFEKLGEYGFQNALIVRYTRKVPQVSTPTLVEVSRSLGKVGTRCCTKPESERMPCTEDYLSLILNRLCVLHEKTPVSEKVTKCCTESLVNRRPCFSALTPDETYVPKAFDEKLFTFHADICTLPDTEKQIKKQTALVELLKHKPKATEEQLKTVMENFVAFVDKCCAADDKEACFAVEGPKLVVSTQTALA
B1: no binding (tested: 0.2 µg per well). B2: no binding (tested: 0.2 µg per well). B3: no binding (tested: 0.2 µg per well). B4: no binding (tested: 0.2 µg per well).
